# Data published in patent publication US20140308281A1 (OSE IMMUNOTHERAPEUTICS, published 2014).
# Changes are numbered by the printed parent chain.
# T1: CD127 (as used in the BIAcore measurement of Table 1) (human, UniProt P16871 21-239, limits assumed)
# T1 construct: the Mabs are called anti-human CD127; also called alpha chain of the IL-7 receptor; IL-7Ralpha
# T1 sequence (looked up): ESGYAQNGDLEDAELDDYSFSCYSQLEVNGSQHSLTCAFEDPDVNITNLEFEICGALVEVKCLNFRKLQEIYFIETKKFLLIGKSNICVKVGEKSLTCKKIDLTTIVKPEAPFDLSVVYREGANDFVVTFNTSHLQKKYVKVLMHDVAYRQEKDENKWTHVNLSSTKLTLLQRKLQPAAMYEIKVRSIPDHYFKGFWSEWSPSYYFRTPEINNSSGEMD
# B1: MD707-13 (antibody, V domains shown)
# VH: QLKESGPGLVQPSQTLSLTCTVSGLSLPNNNIAWIRQSPGKGLEWMGVIWSNGDTDYNSAIRSRLSISRDSSKSQVFLRMNSLQSEDTAMYFCAREGMTTLDYWGQGVVVTVSS
# VL: EIVLTQSPTTMAASPGEKVTITCRASSSVSYMHWFQQKSGSSPKPWIYDSSDLASGVPDRFSGSGSGTSYSLTISSMEAEDAATYYCLQRSSYPRTFGGGTKLELKR
# notes: also called 7MD07-13; rat anti-human CD127 Mab MD707-13
# B2: MD707-1 (antibody, V domains shown)
# VH: AVHLVESGGGLVQPKESLKISCAASGFTFSNAAMFWVRQAPGKGLEWVARIRTKANNYATYYADSVKGRFTISRDDSKSMVYLQMDNVKTDDTAMYYCIVVVLTTTRDYFDYWGQGVMVTVSS
# VL: DIVLTQAPLSVSVTPGESASISCRSSQSLLTVKGITSLYWFLQKPGKSPQLLMYRMSNLASGVPDRFRGSGSETDFTLKISKVETEDVGVYYCAQFLEYPHTFGAGTKLELKR
# notes: also called 7MD07-1; rat anti-human CD127 Mab MD707-1
# B3: MD707-3 (antibody, V domains shown)
# VH: B2 VH with F35Y, D64E
# VL: B2 VL with M53I
# notes: also called 7MD07-3; rat anti-human CD127 Mab MD707-3
# Molecular target: T1, CD127 (as used in the BIAcore …)
# Experiment: SPR (BIAcore)
row,Kd [nM],Binder
1,1.31,B1
2,15.9,B2
3,6.52,B3
